Assay results as given in the DeepSol protein solubility set.

Assay: soluble on expression in E. coli; label from the status in PepcDB or PDB records

In the case of “DALAVALLQARGFSAEDFALSHPGGALGRKLLLKLSDIMHFGNALPKVSPDALIRDALLEISEKGLGMTAIVDEHDAMLGIFTDGDLRRTLDKRIDIHTTAIGEVMTKNPTTAHPEMLAVEGLNLMQNKNINALILCKEDKIVGALNMHDLLKAGVM”, the “soluble on expression in E. coli” value was “not soluble”.

For “HHHHHHMTTINPTNYTLLKKQAASLIEDEHHMIAILSNMSALLNDNLDQINWVGFYLLEQNELILGPFQGHPACVHIPIGKGVCGTAVSERRTQVVADVHQFKGHIACDANSKSEIVVPIFKDDKIIGVLDIDAPITDRFDDNDKEHLEAIVKIIEKQLA”, the “soluble on expression in E. coli” value was “soluble”.

In the case of “MISTANITQQFGAKPLFENISVKFGEGNRYGLIGANGCGKSTFMKILSGELEPTGGNVSYDPNERVAKLNQDQFAYEEFTVIDTVIMGHKELWEVKQERDRIYSLPEMSEEDGMKVADLEVQFAEMDGYMAEAKAGELLLAVGIPMEQHFGLMSEVAPGWKLRVLLAQILFADPDIMLLDEPTNNLDMDTIRWLEDTLNARNCTMIIISHDRHFLNSVCTHMADLDYGELRVYPGNYDEYMTAASQARERLLSDNAKKKAQIAELQTFVARFSANASKAKQATSRAKQIDKIKLDEVKASSRQNPFIRFEQSKELFRNA”, the “soluble on expression in E. coli” value was “not soluble”.

For “DLVPQIIWTGSSDGFIDYYNKRWYEYTGFDGKAFGDKSWVPVMHPDDVQEVLDCWYGSVKKGTPYQIELRMKSAETGEYRWFLSKALPIKDKTGVITKWFGTCTDI”, the “soluble on expression in E. coli” value was “not soluble”.

In the case of “MPREYEFAEKILFTEEEIRTRIKEVAKRIADDYKGKGLRPYVNPLVLISVLRGSFMFTADLCRALCDFNVPVRMEFICVSSYGEGLTSSGQVRMLLDTRHSIEGHHVLIVEDIVDTALTLNYLYHMYFTRRPASLKTVVLLDKREGRRVPFSADYVVANIPNAFVIGYGLDYDDTYRELRDIVVLRPEVYAEREAARQKKQRAIGSADTDRDAKREFHSKY”, the “soluble on expression in E. coli” value was “soluble”.

For “MGHHHHHHSHMDWNKTYAAIYRARKDYLKPIFEIDPIALKDLVGMESQKKALYENTLNFIQDKGANHALLWGSKGTGKSSLIKAIFNEFKEQGLRLVELNKEDLFALADIIDEIRLENFKFILFCDDFSFEKGDDSYKFLKPLLEGSIEKAPNNVIIYASSNRRHLLSESITDNLDTQITHTELHLSDAAEERLSLSDRFG”, the “soluble on expression in E. coli” value was “soluble”.

With “GPGSMSHVKAFDPAAQARCDPYYKRNHMGHVVCTLCDVCCSDDNNFIKHLAGKTHSLQLERLERSANREKRLAEEEELNKEAMRRAEQEKATRELLLQQTSAPHASSVTSFAPFGRPEFHYCTEHDPELYQTKVWLEFYFPQAVEGARPLHRWRSAREQEVEKPPNDDVVYLLVACEGYMTVGLKFPSKLPRTSSGLTSWGGYGNAGSDEEKGRYRCSWDPVKKLYELFFIIG” the “soluble on expression in E. coli” value was “soluble”.

With “MAAQQPLSQEQLLHFWGAHNTMGKMTRRTSQSDGGKPSGNSNAAGGAGTKPKVATPQVVAKIEQYKRDNPTIFAWEIREKLISEDVCTTPPSVSSINRILRTRAAERAAEELQMILSAQHLARPRAQQVRLPPAFPFPFPLVWPGLLPNPAQLSLLLNSGALAPPVQSGGAGGPGVFGNSGQISVDSNLNLSEDDSTLGANARRLSRSTFTNEQLQSLEEVFLRDPYPSPNERADLVKRTNLPEARIQVWFSNRRAKWRKTNANGSDRDELRAERSETDDALSISSQSPSPGGGQETGSDEGKKKTITLFKPYE” the “soluble on expression in E. coli” value was “not soluble”.

With “MLWPFRWVWWKRVLTSQTRAPAKPNPLTVPPTCTWWSLRKLPNPTKLDDDLKNLLDPNEVRARMLKSFGTENFTQPQPQPQALKTTTPVFGTSSGNLGSVLSGGGYHAGLKHHQSTVTRSTGEWVDR” the “soluble on expression in E. coli” value was “soluble”.

For “NETEVAKTSQDTTTASSSSEQNQSSNKTQTSAEVQTNAAAYWDGDYYVKDDGSKAQSEWIFDNYYKAWFYINSDGRYSQNEWHGNYYLKSGGYMAQNEWIYDSNYKSWFYLKSDGAYAHQEWQLIGNKWYYFKKWGYMAKSQWQGSYFLNGQGAMIQNEWLYDPAYSAYFYLKSDGTYANQEWQKVGGKWYYFKKWGYMARNEWQGNYYLTGSGAMATDEVIMDGARYIFAASGELKEKKDLNVGWVHRDGKRYFFNNREEQVGTEHAKKIIDISEHNGRINDWKKVIDENEVDGVIVRLGYSGKEDKELAHNIKELNRLGIPYGVYLYTYAENETDAENDAKQTIELIKKYNMNLSYPIYYDVQNWEYVNKSKRAPSDTDTWVKIINKYMDTMKQAGYQNVYVYSYRSLLQTRLKHPDILKHVNWVAAYTNALEWENPYYSGEKGWQYTSSEYMKGIQGRVDVSVWY”, the “soluble on expression in E. coli” value was “soluble”.

For “MSLKIPEAVNHINVQNNIDLVDGKTNPNKATKALQKNILRVTNSSSSGISEKHLDHCANTVKNFLRKSIAAQSYSKMFSQGTSFKSLNLSIEAPSGARSSFRSLEHLDKVSRHYISEIIQKVHPLSSDERHLLSIIINSNFNFRHQSNSNLSNNILNIKSFDKIQSENIQTHKNTYSEDIKEISNHDFVFFGVEISNHQEKLPLNKTHHTVDFGANAYIIDHDSPYGYMTLTDHFDNAIPPVFYHEHQSFFLDNFKEVVDEVSRYVHGNQGKTDVPIFNTKDMRLGIGLHLIDFIRKSKDQGFREFCYNKNIDPVSLDRIINFVFQLEYHIPRMLSTDNFKKIKLRDISLEDAIKASNYEEINNKVTDKKMAHQALAYSLGNKKADIALYLLSKFNFTKQDVAEMEKMNNNRYCNLYDVEYLLSKDGANYKVLEYFINNGLVDVNKKFQKANSGDTMLDNAMKSKNPKMIDFLLKNGAILGKRFEIEGHHHHHH”, the “soluble on expression in E. coli” value was “soluble”.

For “MTDAGSSFCPECGDPVDSVGGDGATRREQSLCDSCYFAAFDLVDAPDTIEVMVCARCGAVHRGNRWVDIGADDYVDVAVAETTEALGVHLEAEDVDWEVRPEKLDDNTVRMHATFTGVVRDTHRTEQVAVTVKVSRQTCQRCGRIAGESYASTVQVRAVGRDPTSEETDRAAELAHRIVADMEATGDREAFVTEIGDAESGTDIKLSTTKIGLKLARKLVEEFGGDFEDHETLITEDDDGNEVYRVTYAVRLPEFVPGDVVDIAADDGGPVLVQSNHGNLKGVRVTTGEPYEASFEDGDSPDARKLGAVADATEATVVTVEDDAAIQILDPDTYEAQTVARPDYVDPDASTVPALKSRAGLHVLPDALEHHHHHH”, the “soluble on expression in E. coli” value was “soluble”.

With “MSLLASLGGLVSCAAKVHFKEEGNAMNELIANHDFDFRQLVTAAEGQPVTDTFQIAKAFGKRHADVLRALKNCHCSEDFRRAHFCVSEKINNLGIFDKKQIYYRMDFSGFVMLVMGFNGAKADAVKEAYINAFNWMSAELRKYSESYEAERNAIMLEYMKEKDVASMSGRLLNRWGKIKKPQLLARIGRLEQHGQTVIPGLTNEGHHHHHH” the “soluble on expression in E. coli” value was “not soluble”.

With “MSLQSSIYRIRHLAKPAYREEFKGDIECSTAAYKEVLEDTSTDSTSKLPLEAKFGKMSIIKLVLLLIISTIIYANDKNISNLHITSDSLIIDRTKQKAAYLGNVIVYFDNAILRTKELYIFYKTIDEKQTIDHIVVPTKLTVERKINNELLLADSAKYFCDNKQLILLGNVILQRDDNVLKTNKLIYYVDIIKK” the “soluble on expression in E. coli” value was “not soluble”.

In the case of “MVARDTTAPQVKIVNPVTGNVSGSNVPISVNASDDSGASGITYALYIDGVLKATGKGSTLGYNWNIRNVAAGAHTVQVVAKDAAGNSASSSVSVTVVKLEHHHHHH”, the “soluble on expression in E. coli” value was “not soluble”.

With “MATAKKITIHDVALAAGVSVSTVSLVLSGKGRISTATGERVNAAIEELGFVRNRQASALRGGQSGVIGLIVRDLSAPFYAELTAGLTEALEAQGRMVFLLHGGKDGEQLAQRFSLLLNQGVDGVVIAGAAGSSDDLRRMAEEKAIPVIFASRASYLDDVDTVRPDNMQAAQLLTEHLIRNGHQRIAWLGGQSSSLTRAERVGGYCATLLKFGLPFHSDWVLECTSSQKQAAEAITALLRHNPTISAVVCYNETIAMGAWFGLLKAGRQSGESGVDRYFEQQVSLAAFTDATPTTLDDIPVTWASTPARELGITLADRMMQKITHEETHSRNLIIPARLIAAK” the “soluble on expression in E. coli” value was “not soluble”.

With “LVCRGSNEPTYCLCHQVSYGEMIGCDNPDCPIEWFHFACVDLTTKPKGKWFCPRCVQEK” the “soluble on expression in E. coli” value was “soluble”.

For “MIISEFDRNNPVLKDQLSDLLRLTWPEEYGDSSAEEVEEMMNPERIAVAAVDQDELVGFIGAIPQYGITGWELHPLVVESSRRKNQIGTRLVNYLEKEVASRGGITIYLGTDDLDHGTTLSQTDLYEHTFDKVASIQNLREHPYEFYEKLGYKIVGVLPNANGWDKPDIWMAKTIIPRPD”, the “soluble on expression in E. coli” value was “soluble”.

For “SNAKKVCVDTCVVIDGRITELIERGKLKDATIIIPEAVVSELEYQANMGREIGYKGIEELRKLIEKASEHNIKVEYYGERPTREEIFLAKSGEIDAMIRKVAKETNSILLTSDWIQYNLAKAQGIEAYFLEAAEEEVELVLD”, the “soluble on expression in E. coli” value was “soluble”.

With “MAHHHHHHVDDDDKMAGDSAAYQRTSLYGDDVVIVAAHRTPLCKSKRGNFKDTYPDDLLAPVLRALIEKTNLNPSEVGDIVVGTVLAPGSQRASECRMAAFYAGFPETVAVRTVNRQCSSGLQAVADVAAAIKAGFYDIGIGAGLESMTTNPMAWEGSVNPAVKKFAQAQNCLLPMGVTSENVAQRFGVSRQEQDQAAVDSHRKAAAATAAGKFKDEIIPVKTKLVDPKTGDEKPITVSVDDGIRPTTTLASLGKLKPVFKKDGTTTAGNSSQVSDGAGAVLLMKRSVAMQKGLPVLGVFRTFAAVGVDPAIMGIGPAVAIPAAVKAAGLELDDIDLFEINEAFASQFVYCRNKLGLDPEKINVNGGAMAIGHPLGATGARCVATLLHEMKRRGKDCRFGVVSMCIGTGMGAAAVFERGDGVDELRNARKVEAQGLLSKDAR” the “soluble on expression in E. coli” value was “soluble”.

With “GSKGNIRVIARVRPVTKEDGEGPEATNAVTFDADDDSIIHLLHKGKPVSFELDKVFSPQASQQDVFQEVQALVTSCIDGFNVCIFAYGQTGAGKTYTMEGTAENPGINQRALQLLFSEVQEKASDWEYTITVSAAEIYNEVLRDLLGKEPQEKLEIRLCPDGSGQLYVPGLTEFQVQSVDDINKVFEFGHTNRTTEFTNLNEHSSRSHALLIVTVRGVDCSTGLRTTGKLNLVDLAGSERVGKSGAEGSRLREAQHINKSLSALGDVIAALRSRQGHVPFRNSKLTYLLQDSLSGDSKTLMVVQVSPVEKNTSETLYSLKFAERVRSVEL” the “soluble on expression in E. coli” value was “soluble”.

In the case of “GPGSMEDAHMLVATDDADVAYFGIFDGHSNAECSAYVARELPQRLKKLPESITAEMLEKVCIEVDEAYMKTSTEGGTTGTFCVIRKDLTVTIANVGDSRILVCRGGKLIFATEDHKPYIPGETERIVACGGSVVSNRVDGDLAVSRAFGDASFKVKGTKDYRMQKVIAVPDVSVLQCEPNDFIILACDGVFEGNFSNEDVCQFVWEQQQNCWDDLAVVACRVCDEAIRCGSKDNISCLVVQLAEGASRVKAFGATSFVPGPPFPRNQQPCRAAYAQMAELGHTTTAAALQTRYQLLQAFSKNKLNSQPPVMRTAFEMSDEVDVETEWSFFGKGPAPGNEKNFFEALANTGNSS”, the “soluble on expression in E. coli” value was “not soluble”.

With “GSNEIKRGAVDLIKTGVNEKAMAGAVFSLFKKDGTEVKKELATDANGHIRVQGLEYGEYYFQETKAPKGYVIDPTKREFFVKNSGTINEDGTITSGTVVKMEVKNNEEPTIDKKINGKLEALPINPLTNYNYDIKTLIPEDIKEYKKYVVTDTLDNRLVIQGKPIVKIDGAEVNANVVEVAIEGQKVTATVKDFTKMDGKKEFHLQIKSQVKEGVPSGSEILNTAKIHFTNKNDVIGEKESKPVVVIPTTGIIELTKIDSANKNKMKGAEFVLKDNNGKIVVVAGKEVTGVSDENGVIKWSNIPYGDYQIFETKAPTYTKEDGTKTSYQLLKDPIDVKISENNQTVKLTIENNKS” the “soluble on expression in E. coli” value was “soluble”.

In the case of “MQLVREKEFVNQYHYDARNLEWEKENGTPETNFEVTFQLIDKDEQQKETVIVSVLQFVIVKEEFVISGVISQMVRILDRLVDKPSEFTQEEVESLAAPLLDMVKRLTYEVTEIALDRPGIHLEFKN”, the “soluble on expression in E. coli” value was “not soluble”.
